Broadly, the Kd is the constant that tells how readily two partners part at equilibrium. Broadly, the IC50 is the point on the concentration scale where inhibition reaches its midpoint. Read a low IC50 as greater potency in that assay.

The target of assay [1] is HLA-A*32:01. Nature of the assay: IEDB peptide-MHC binding, purified MHC/competitive/radioactivity; filed as Kd, often an IC50 or EC50 that approximates it; ≥ and ≤ were set here for values at or beyond the usual limits of such assays.
The target in assay [2] is HLA-A*30:02. Described as above. The following applies: source organism: Dengue virus 3 Martinique/1243/1999.
Assay [3] addresses HLA-A*24:02. As to the kind of experiment: IEDB peptide-MHC binding, purified MHC/competitive/fluorescence; ≥ and ≤ were set here for values at or beyond the usual limits of such assays.
Assay [4] addresses HLA-A*02:01. Described as above.
The target of assay [5] is HLA-A*01:01. Nature of the assay: IEDB peptide-MHC binding, purified MHC/competitive/radioactivity; filed as Kd, often an IC50 or EC50 that approximates it; ≥ and ≤ were set here for values at or beyond the usual limits of such assays. The settings on record: source organism: Dengue virus 2 Jamaica/1409/1983.
For assay [6], the target named is HLA-A*26:01. The description is as above. The following applies: source organism: Dengue virus 2 Jamaica/1409/1983.
In assay [7] the target is HLA-A*30:01. The description is as above.
Assay [8] has as its target HLA-B*35:01. The description is as above.
Assay [9] has as its target HLA-A*69:01. As to the kind of experiment: IEDB peptide-MHC binding, purified MHC/direct/fluorescence; filed as Kd, often an IC50 or EC50 that approximates it; ≥ and ≤ were set here for values at or beyond the usual limits of such assays.
The target in assay [10] is HLA-B*07:02. The assay is described as above.
Assay [11] concerns the target HLA-A*02:01. The description is as above. The settings on record: source organism: Homo sapiens.
The target in assay [12] is HLA-A*03:01. The description is as above. The following applies: source organism: Francisella tularensis subsp. tularensis FSC198.
The target in assay [13] is HLA-A*31:01. The assay is described as above. The following applies: source organism: Francisella tularensis subsp. tularensis FSC198.
Assay [14] has as its target HLA-A*68:01. As to the kind of experiment: IEDB peptide-MHC binding, purified MHC/competitive/radioactivity; filed as Kd, often an IC50 or EC50 that approximates it; ≥ and ≤ were set here for values at or beyond the usual limits of such assays. The settings on record: source organism: Dengue virus 2 Jamaica/1409/1983.
For assay [15], the target named is HLA-A*03:01. Described as above. The settings on record: source organism: Dengue virus 3 Singapore/8120/1995.
Assay [16] has as its target HLA-A*11:01. The description is as above. The following applies: source organism: Dengue virus 3 Singapore/8120/1995.
The target of assay [17] is HLA-A*31:01. The assay is described as above. The following applies: source organism: Dengue virus 3 Singapore/8120/1995.
Setting [18] is: source organism: Dengue virus 1 Brazil/97-11/1997.
[19] abbreviates: source organism: Sudan ebolavirus.
The mark [20] stands for this setting: source organism: Zaire ebolavirus.
The mark [21] stands for this setting: source organism: Dengue virus 2 Jamaica/1409/1983.
[22] abbreviates: source organism: Vaccinia virus WR.
The mark [23] stands for this setting: source organism: Vaccinia virus.
The mark [24] stands for this setting: source organism: Dengue virus 3 Martinique/1243/1999.
[25] abbreviates: source organism: Dengue virus 4 Philippines/H241/1956.
[26] abbreviates: source organism: Human herpesvirus 4 strain B95-8.

Take GKIIHEWCCR: the Kd in assay [1] (setting [18]) was ≥ 51.6 µM. For YAQMWSLMY, the dissociation constant Kd in assay [2] came out at 0.0088 µM. In turn, FRKSSFFVW yielded a 50% inhibitory concentration (IC50) in assay [3] (setting [19]) of 2.42 µM. Regarding GRQTQSRPI, the IC50 in assay [3] (setting [20]) was ≥ 204 µM. For the sequence GNPGRFWNTT, the Kd in assay [1] (setting [21]) is 9.9 µM. With INVEYRFLV, the IC50 worked out at 1.65 µM in [4] (setting [22]) and 5.73 µM in assay [3] (setting [22]). With LESRFTPQF, in assay [3] (setting [20]), the IC50 was found to be 16.2 µM. LIEWAMEKS: the IC50 in assay [4] (setting [23]) is ≥ 408 µM.

Turning to ATVTGGIFLF, the figures for the Kd in [5] and in assay [6] were 2.03 µM and 2.51 µM, respectively. GVTGILQLP registered an IC50 in assay [4] (setting [20]) of 63.5 µM. With LVKLHSGKDV, the Kd in assay [7] (setting [18]) came to 5.94 µM. Turning to FTPQFLLQL, the IC50 in assay [4] (setting [20]) was 0.292 µM; in assay [3] (setting [20]), 0.814 µM. On to AVPVHWVPTS, for which, in assay [7] (setting [24]), the Kd worked out at 10.5 µM. In the case of GPILTLWEGN, the Kd in assay [1] (source organism: Dengue virus 4 Dominica/814669/1981) stood at 0.504 µM. Turning to ISGQSPART, the IC50 in assay [4] (setting [20]) is ≥ 137 µM. IAVGMVTLY: the Kd in assay [8] (setting [18]) came to 0.0135 µM. LNDTIHLHQ had an IC50 in assay [3] (setting [19]) of 34 µM. KVKYEGAGA: the Kd in assay [7] (setting [25]) came out at 0.123 µM.

Take ITVIDLEPIS: the Kd in assay [7] (setting [25]) was found to be 0.105 µM. As to QPRAPIRPI, the Kd was 2.54 µM in assay [9] (setting [26]) and 0.161 µM in [10] (setting [26]). For the sequence APTGDLPRA, the Kd in assay [11] was ≥ 21.8 µM; in [9] (source organism: Homo sapiens), 6.78 µM; in assay [10] (source organism: Homo sapiens) it was 5.52 µM.

The sequence FNYLFGGFS had an IC50 in [4] (source organism: Variola virus) of 51.6 µM. The sequence YRFLVINRL displayed an IC50 in assay [3] (setting [22]) of 0.9 µM. Turning to LTILIRTGLL, the Kd in assay [6] came out at 8.47 µM. Consider HILGPDCCI, for which the figures for the 50% inhibitory concentration (IC50) in assay [4] (setting [20]) and in [3] (setting [20]) were 66.4 µM and ≥ 135 µM, respectively. For the sequence AWIPYFGPA, the IC50 was 20 µM in assay [4] (setting [20]) and ≥ 81.1 µM in assay [3] (setting [20]). DGIRGFPRC: the IC50 in [4] (setting [20]) was ≥ 126 µM. As to SFSSGWSPR, the Kd in [12] was ≥ 20 µM; in assay [13], 0.0034 µM.

Turning to KTMTTVYIL, the Kd in assay [1] (setting [22]) amounted to 0.0139 µM.

Regarding KQWFLDLPLP, the equilibrium dissociation constant (Kd) in assay [7] (setting [18]) amounted to 9.59 µM. Take GQLKLNWFKK: the dissociation constant Kd in [1] (setting [21]) was 2.07 µM. With GTNGISNGI, in [1] (setting [22]), the Kd came out at 0.0201 µM. For MPPLRFLGED, the Kd in assay [8] (setting [25]) was 15.2 µM.

Regarding TDFHERPVI, in assay [3] (source organism: Variola virus), the IC50 is 0.408 µM.

In [3] (setting [20]), IRYQATGFG came in with an IC50 of 54.4 µM. IGVLLTWIGL: in assay [1] (setting [24]), the Kd was ≥ 33 µM.

In the case of DVFFTPPEK, the Kd in [7] (setting [21]) came out at 1.3 µM; in assay [14], 0.00359 µM.

For KTKIDIIFA, in [7] (setting [23]), the Kd was 0.01 µM. Same read-out and setting: the figure for MALIVSIFK is 0.896 µM. EEINNQLLL yielded a 50% inhibitory concentration (IC50) in [3] (setting [23]) of 57.8 µM. LINFLLRSI: the Kd in assay [1] (setting [22]) was 0.254 µM. With HAHWTEAKM, the Kd in [8] (setting [18]) was determined as 0.285 µM. On to LFDLDEDDE, for which the IC50 in assay [4] (setting [20]) is ≥ 212 µM. Turning to KWKRQLNSL, the Kd in assay [7] (setting [25]) turned out to be 0.29 µM.

KALKINWYK: the Kd in assay [15] stood at 0.0841 µM; in assay [16] it was 0.0817 µM; in [7] (source organism: Dengue virus 3 Singapore/8120/1995), 0.36 µM; in assay [17], 0.00011 µM. In the case of KLRCRNTEA, the Kd in assay [7] (setting [22]) amounted to 0.0142 µM. For the sequence FLNEDHWFGR, the dissociation constant (Kd) in assay [1] (setting [25]) was determined as 1.56 µM.

(Values after the Immune Epitope Database (IEDB).)
